tested on: Escherichia coli TOP10; experiment: shrunken log2 fold change of peptide-encoding DNA abundance (4.5 h post-induction vs induction); higher = less antimicrobial activity (less host growth inhibition); conditions: time post-induction: 4.5 h; library: site-saturation at positions 5, 18, 19, 20
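Further: peptides expressed intracellularly from a pBAD plasmid library in pooled LB shake-flask culture, induced with 0.3% L-arabinose, DNA abundance read by NGS, three biological replicates, DESeq2 with apeglm shrinkage.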

Row | Sequence | shrunken log2 fold change
1 | RRIRDRPPRLPRPRPRPKKDPRP | 0.199
2 | RRIRGRPPRLPRPRPRPEWRPRP | 1.15
3 | RRIRQRPPRLPRPRPRPYCDPRP | -0.431
4 | RRIRHRPPRLPRPRPRPTDWPRP | 0.223
5 | RRIRIRPPRLPRPRPRPRQMPRP | 0.0961
6 | RRIRMRPPRLPRPRPRPKFPPRP | 0.455
7 | RRIRVRPPRLPRPRPRPWVKPRP | -0.235
8 | RRIRARPPRLPRPRPRPDYPPRP | -0.0306
9 | RRIRQRPPRLPRPRPRPFLSPRP | 0.024
10 | RRIRFRPPRLPRPRPRPNKEPRP | 0.0307
11 | RRIRCRPPRLPRPRPRPWDMPRP | -0.0934
12 | RRIRQRPPRLPRPRPRPMNYPRP | -0.182
13 | RRIRRRPPRLPRPRPRPFLTPRP | 0.228
14 | RRIRWRPPRLPRPRPRPMCAPRP | 0.713
15 | RRIRERPPRLPRPRPRPSKFPRP | -0.199
16 | RRIRARPPRLPRPRPRPYNWPRP | -0.481
17 | RRIRWRPPRLPRPRPRPEVLPRP | 0.167
18 | RRIRARPPRLPRPRPRPKCNPRP | 0.0681
19 | RRIRSRPPRLPRPRPRPPGYPRP | 0.0642
20 | RRIRQRPPRLPRPRPRPGVLPRP | 0.0476
21 | RRIRCRPPRLPRPRPRPAGTPRP | -0.202
22 | RRIRMRPPRLPRPRPRPTYGPRP | -0.00932
23 | RRIRSRPPRLPRPRPRPCYQPRP | 0.0321
24 | RRIRMRPPRLPRPRPRPREKPRP | 1.19
25 | RRIRHRPPRLPRPRPRPGLEPRP | 0.00016

Row | Sequence | shrunken log2 fold change
26 | RRIRYRPPRLPRPRPRPDWPPRP | -0.0212
27 | RRIRERPPRLPRPRPRPTFLPRP | -0.724
28 | RRIRLRPPRLPRPRPRPYTHPRP | -0.925
29 | RRIRQRPPRLPRPRPRPMSQPRP | -0.0185
30 | RRIRKRPPRLPRPRPRPHSQPRP | -0.142
31 | RRIRPRPPRLPRPRPRPKFDPRP | 0.163
32 | RRIRARPPRLPRPRPRPYESPRP | -0.103
33 | RRIRVRPPRLPRPRPRPAIRPRP | 0.0362
34 | RRIRHRPPRLPRPRPRPSYVPRP | -1.15
35 | RRIRKRPPRLPRPRPRPPMFPRP | 0.269
36 | RRIRHRPPRLPRPRPRPLIKPRP | -0.721
37 | RRIRRRPPRLPRPRPRPMLFPRP | 0.263
38 | RRIRWRPPRLPRPRPRPCTVPRP | -0.438
39 | RRIRIRPPRLPRPRPRPKDLPRP | 0.000215
40 | RRIRDRPPRLPRPRPRPGFMPRP | 0.219
41 | RRIRYRPPRLPRPRPRPWPHPRP | 0.0143
42 | RRIRNRPPRLPRPRPRPSMPPRP | -0.139
43 | RRIRMRPPRLPRPRPRPNPNPRP | 0.394
44 | RRIRWRPPRLPRPRPRPQHWPRP | 0.0364
45 | RRIRYRPPRLPRPRPRPTAVPRP | -0.169
46 | RRIRARPPRLPRPRPRPGSRPRP | 0.279
47 | RRIRYRPPRLPRPRPRPDNSPRP | -0.779
48 | RRIRHRPPRLPRPRPRPRKHPRP | -0.113
49 | RRIRSRPPRLPRPRPRPLICPRP | -0.221
50 | RRIRSRPPRLPRPRPRPYEDPRP | -0.129

Row | Sequence | shrunken log2 fold change
51 | RRIRQRPPRLPRPRPRPGYYPRP | -0.476
52 | RRIRVRPPRLPRPRPRPRWFPRP | -0.0978
53 | RRIRARPPRLPRPRPRPAITPRP | 0.322
54 | RRIRCRPPRLPRPRPRPPWNPRP | -0.0539
55 | RRIRQRPPRLPRPRPRPTPIPRP | 0.182
56 | RRIRRRPPRLPRPRPRPGWLPRP | 0.427
57 | RRIRGRPPRLPRPRPRPVKHPRP | 0.168
58 | RRIRIRPPRLPRPRPRPCVSPRP | -0.012
59 | RRIRLRPPRLPRPRPRPEWTPRP | -0.019
60 | RRIRRRPPRLPRPRPRPHVRPRP | 0.0936
61 | RRIRERPPRLPRPRPRPHGLPRP | -0.161
62 | RRIRARPPRLPRPRPRPYLLPRP | -0.76
63 | RRIRERPPRLPRPRPRPCCQPRP | -0.485
64 | RRIRARPPRLPRPRPRPTMRPRP | 0.976
65 | RRIRRRPPRLPRPRPRPHATPRP | 0.492
66 | RRIRMRPPRLPRPRPRPNLLPRP | -0.103
67 | RRIRCRPPRLPRPRPRPFWTPRP | -0.317
68 | RRIRWRPPRLPRPRPRPPTKPRP | 4.13
69 | RRIRRRPPRLPRPRPRPICYPRP | -0.0102
70 | RRIRIRPPRLPRPRPRPAGMPRP | -0.0321
71 | RRIRFRPPRLPRPRPRPAESPRP | -0.117
72 | RRIRLRPPRLPRPRPRPAPPPRP | 0.676
73 | RRIRSRPPRLPRPRPRPTLDPRP | 0.47
74 | RRIRIRPPRLPRPRPRPGHVPRP | -0.0457
75 | RRIRWRPPRLPRPRPRPYGPPRP | -0.0264

Row | Sequence | shrunken log2 fold change
76 | RRIRIRPPRLPRPRPRPLEVPRP | -0.0958
77 | RRIRCRPPRLPRPRPRPMLCPRP | 0.0786
78 | RRIRYRPPRLPRPRPRPTWFPRP | -0.351
79 | RRIRVRPPRLPRPRPRPFHTPRP | -1.18
80 | RRIRSRPPRLPRPRPRPNELPRP | -0.295
81 | RRIRLRPPRLPRPRPRPYMHPRP | -0.408
82 | RRIRFRPPRLPRPRPRPNCVPRP | -0.321
83 | RRIRPRPPRLPRPRPRPKHHPRP | -0.228
84 | RRIRRRPPRLPRPRPRPHWMPRP | 0.122
85 | RRIRNRPPRLPRPRPRPTFYPRP | -0.376
86 | RRIRRRPPRLPRPRPRPIQSPRP | 0.0301
87 | RRIRHRPPRLPRPRPRPSMYPRP | -0.0507
88 | RRIRVRPPRLPRPRPRPKTMPRP | 0.196
89 | RRIRLRPPRLPRPRPRPDVTPRP | -0.0876
90 | RRIRSRPPRLPRPRPRPNINPRP | -0.612
91 | RRIRLRPPRLPRPRPRPRYKPRP | -0.225
92 | RRIRNRPPRLPRPRPRPRQFPRP | 0.0733
93 | RRIRYRPPRLPRPRPRPLGKPRP | -0.192
94 | RRIRCRPPRLPRPRPRPVIYPRP | -0.493
95 | RRIRPRPPRLPRPRPRPDQNPRP | -0.065
96 | RRIRDRPPRLPRPRPRPEGFPRP | 0.638
97 | RRIRGRPPRLPRPRPRPNYDPRP | 0.134
98 | RRIRDRPPRLPRPRPRPPSFPRP | 0.155
99 | RRIRRRPPRLPRPRPRPPMQPRP | 0.385
100 | RRIRKRPPRLPRPRPRPIWSPRP | -0.0718

Row | Sequence | shrunken log2 fold change
101 | RRIRDRPPRLPRPRPRPPAWPRP | 0.811
102 | RRIRQRPPRLPRPRPRPKWFPRP | -0.107
103 | RRIRHRPPRLPRPRPRPWRNPRP | 0.00611
104 | RRIRRRPPRLPRPRPRPYQSPRP | -0.145
105 | RRIRYRPPRLPRPRPRPWLWPRP | 0.0662
106 | RRIRFRPPRLPRPRPRPYQWPRP | -0.655
107 | RRIRVRPPRLPRPRPRPRNKPRP | -0.136
108 | RRIRCRPPRLPRPRPRPDRWPRP | 0.0613
109 | RRIRWRPPRLPRPRPRPCNIPRP | -0.133
110 | RRIRYRPPRLPRPRPRPTNYPRP | 1.18
111 | RRIRHRPPRLPRPRPRPGCEPRP | 0.103
112 | RRIRPRPPRLPRPRPRPLIRPRP | -0.218
113 | RRIRYRPPRLPRPRPRPNKWPRP | 0.0191
114 | RRIRARPPRLPRPRPRPHHSPRP | -0.404
115 | RRIRERPPRLPRPRPRPEQAPRP | 0.143
116 | RRIRPRPPRLPRPRPRPHTAPRP | -0.205
117 | RRIRKRPPRLPRPRPRPKCIPRP | 0.317
118 | RRIRPRPPRLPRPRPRPLIWPRP | 0.0601
119 | RRIRIRPPRLPRPRPRPQTSPRP | -0.404
120 | RRIRARPPRLPRPRPRPYPDPRP | -0.0126
121 | RRIRPRPPRLPRPRPRPKVSPRP | 0.0436
122 | RRIRWRPPRLPRPRPRPDVSPRP | 0.265
123 | RRIRMRPPRLPRPRPRPVKRPRP | -0.0121
124 | RRIRCRPPRLPRPRPRPMSFPRP | -0.29
125 | RRIRYRPPRLPRPRPRPLCCPRP | -0.391

Row | Sequence | shrunken log2 fold change
126 | RRIRARPPRLPRPRPRPPQSPRP | 0.993
127 | RRIRARPPRLPRPRPRPWWMPRP | 0.0201
128 | RRIRPRPPRLPRPRPRPYAHPRP | -0.0338
129 | RRIRERPPRLPRPRPRPHIRPRP | -0.126
130 | RRIRYRPPRLPRPRPRPSKTPRP | -0.0513
131 | RRIRCRPPRLPRPRPRPMTPPRP | 0.377
132 | RRIRPRPPRLPRPRPRPLQWPRP | -0.037
133 | RRIRCRPPRLPRPRPRPMMMPRP | 2.91
134 | RRIRCRPPRLPRPRPRPNHFPRP | -0.484
135 | RRIRVRPPRLPRPRPRPYFCPRP | -0.483
136 | RRIRQRPPRLPRPRPRPLHHPRP | -0.73
137 | RRIRGRPPRLPRPRPRPPDRPRP | 0.564
138 | RRIRSRPPRLPRPRPRPLHWPRP | 0.197
139 | RRIRDRPPRLPRPRPRPCYDPRP | -0.129
140 | RRIRDRPPRLPRPRPRPDKMPRP | 0.0425
141 | RRIRDRPPRLPRPRPRPKAGPRP | 0.143
142 | RRIRRRPPRLPRPRPRPMRAPRP | 0.905
143 | RRIRVRPPRLPRPRPRPYVMPRP | -0.619
144 | RRIRNRPPRLPRPRPRPDRVPRP | -0.275
145 | RRIRKRPPRLPRPRPRPLSCPRP | 0.0262
146 | RRIRQRPPRLPRPRPRPVWRPRP | 0.205
147 | RRIRVRPPRLPRPRPRPIGRPRP | -0.0725
148 | RRIRTRPPRLPRPRPRPQGGPRP | 0.114
149 | RRIRIRPPRLPRPRPRPRVSPRP | 0.0983
150 | RRIRIRPPRLPRPRPRPDNMPRP | -0.25

Reference: the supplement of paper PMC9112550, “Optimization of the antimicrobial peptide Bac7 by deep mutational scanning” (BMC Biology, 2022)
